Results published in IntAct's records for PubMed 31515488.

B1: Tektin-4 (Homo sapiens), Q8WW24 (parent)
chain: MAQTVPPCELPCKEYDVARNTGAYTSSGLATASFRTSKYLLEEWFQNCYARYHQAFADRDQSERQRHESQQLATETQALAQRTQQDSTRTVGERLQDTHSWKSELQREMEALAAETNLLLAQKQRLERALDATEVPFSITTDNLQCRERREHPNLVRDHVETELLKEAELIRNIQELLKRTIMQAVSQIRLNREHKETCEMDWSDKMEAYNIDETCGRHHSQSTEVQAHPYSTTFQESASTPETRAKFTQDNLCRAQRERLASANLRVLVDCILRDTSEDLRLQCDAVNLAFGRRCEELEDARYKLHHHLHKTLREITDQEHNVAALKQAIKDKEAPLHVAQTRLYLRSHRPNMELCRDAAQFRLLSEVEELNMSLTALREKLLEAEQSLRNLEDIHMSLEKDIAAMTNSLFIDRQKCMAHRTRYPTILQLAGYQ
B2: Chorion-specific transcription factor GCMb (Homo sapiens), O75603 (parent)
chain: MPAAAVQEAVGVCSYGMQLSWDINDPQMPQELALFDQFREWPDGYVRFIYSSDEKKAQRHLSGWAMRNTNNHNGHILKKSCLGVVVCTQACTLPDGSRLQLRPAICDKARLKQQKKACPNCHSALELIPCRGHSGYPVTNFWRLDGNAIFFQAKGVHDHPRPESKSETEARRSAIKRQMASFYQPQKKRIRESEAEENQDSSGHFSNIPPLENPEDFDIVTETSFPIPGQPCPSFPKSDVYKATCDLATFQGDKMPPFQKYSSPRIYLPRPPCSYELANPGYTNSSPYPTLYKDSTSIPNDTDWVHLNTLQCNVNSYSSYERSFDFTNKQHGWKPALGKPSLVERTNHGQFQAMATRPYYNPELPCRYLTTPPPGAPALQTVITTTTKVSYQAYQPPAMKYSDSVREVKSLSSCNYAPEDTGMSVYPEPWGPPVTVTRAASPSGPPPMKIAGDCRAIRPTVAIPHEPVSSRTDEAETWDVCLSGLGSAVSYSDRVGPFFTYNNEDF
partner: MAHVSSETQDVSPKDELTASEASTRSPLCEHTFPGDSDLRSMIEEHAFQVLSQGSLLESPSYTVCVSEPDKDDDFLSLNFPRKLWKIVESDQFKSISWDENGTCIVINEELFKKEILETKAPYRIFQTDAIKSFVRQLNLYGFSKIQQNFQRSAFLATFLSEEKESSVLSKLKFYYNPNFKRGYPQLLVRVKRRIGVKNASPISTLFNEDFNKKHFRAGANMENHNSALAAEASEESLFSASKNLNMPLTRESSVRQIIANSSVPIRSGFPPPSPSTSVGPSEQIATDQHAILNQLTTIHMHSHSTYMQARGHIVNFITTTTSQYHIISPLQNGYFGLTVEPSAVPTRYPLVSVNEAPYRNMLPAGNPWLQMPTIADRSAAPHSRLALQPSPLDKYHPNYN
B3: Ras-related protein Rab-4A (Homo sapiens), P20338 (parent)
chain: MSQTAMSETYDFLFKFLVIGNAGTGKSCLLHQFIEKKFKDDSNHTIGVEFGSKIINVGGKYVKLQIWDTAGQERFRSVTRSYYRGAAGALLVYDITSRETYNALTNWLTDARMLASQNIVIILCGNKKDLDADREVTFLEASRFAQENELMFLETSALTGENVEEAFVQCARKILNKIESGELDPERMGSGIQYGDAALRQLRSPRRAQAPNAQECGC
partner: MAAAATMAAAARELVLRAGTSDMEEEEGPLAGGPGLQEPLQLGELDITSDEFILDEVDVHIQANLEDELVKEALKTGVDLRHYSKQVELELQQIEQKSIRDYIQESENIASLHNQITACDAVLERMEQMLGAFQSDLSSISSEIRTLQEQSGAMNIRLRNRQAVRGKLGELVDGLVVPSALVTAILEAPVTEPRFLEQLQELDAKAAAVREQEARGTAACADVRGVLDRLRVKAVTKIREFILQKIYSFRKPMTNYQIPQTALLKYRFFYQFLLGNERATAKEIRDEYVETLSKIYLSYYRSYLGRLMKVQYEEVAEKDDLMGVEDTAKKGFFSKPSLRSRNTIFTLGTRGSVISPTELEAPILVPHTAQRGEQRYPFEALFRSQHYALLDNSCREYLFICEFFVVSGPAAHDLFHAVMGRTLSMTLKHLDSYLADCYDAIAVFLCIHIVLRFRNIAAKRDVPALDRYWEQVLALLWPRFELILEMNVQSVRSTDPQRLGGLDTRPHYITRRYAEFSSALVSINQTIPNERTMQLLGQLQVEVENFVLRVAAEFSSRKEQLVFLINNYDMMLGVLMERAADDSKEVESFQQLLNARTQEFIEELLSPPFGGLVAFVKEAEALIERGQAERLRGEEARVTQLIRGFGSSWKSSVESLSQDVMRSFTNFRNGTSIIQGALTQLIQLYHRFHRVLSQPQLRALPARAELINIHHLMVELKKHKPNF
B4: Serine/threonine-protein kinase PAK 6 (Homo sapiens), Q9NQU5 (parent)
chain: MFRKKKKKRPEISAPQNFQHRVHTSFDPKEGKFVGLPPQWQNILDTLRRPKPVVDPSRITRVQLQPMKTVVRGSAMPVDGYISGLLNDIQKLSVISSNTLRGRSPTSRRRAQSLGLLGDEHWATDPDMYLQSPQSERTDPHGLYLSCNGGTPAGHKQMPWPEPQSPRVLPNGLAAKAQSLGPAEFQGASQRCLQLGACLQSSPPGASPPTGTNRHGMKAAKHGSEEARPQSCLVGSATGRPGGEGSPSPKTRESSLKRRLFRSMFLSTAATAPPSSSKPGPPPQSKPNSSFRPPQKDNPPSLVAKAQSLPSDQPVGTFSPLTTSDTSSPQKSLRTAPATGQLPGRSSPAGSPRTWHAQISTSNLYLPQDPTVAKGALAGEDTGVVTHEQFKAALRMVVDQGDPRLLLDSYVKIGEGSTGIVCLAREKHSGRQVAVKMMDLRKQQRRELLFNEVVIMRDYQHFNVVEMYKSYLVGEELWVLMEFLQGGALTDIVSQVRLNEEQIATVCEAVLQALAYLHAQGVIHRDIKSDSILLTLDGRVKLSDFGFCAQISKDVPKRKSLVGTPYWMAPEVISRSLYATEVDIWSLGIMVIEMVDGEPPYFSDSPVQAMKRLRDSPPPKLKNSHKVSPVLRDFLERMLVRDPQERATAQELLDHPFLLQTGLPECLVPLIQLYRKQTSTC
B5: Tubby-related protein 3 (Homo sapiens), O75386 (parent)
chain: MEASRCRLSPSGDSVFHEEMMKMRQAKLDYQRLLLEKRQRKKRLEPFMVQPNPEARLRRAKPRASDEQTPLVNCHTPHSNVILHGIDGPAAVLKPDEVHAPSVSSSVVEEDAENTVDTASKPGLQERLQKHDISESVNFDEETDGISQSACLERPNSASSQNSTDTGTSGSATAAQPADNLLGDIDDLEDFVYSPAPQGVTVRCRIIRDKRGMDRGLFPTYYMYLEKEENQKIFLLAARKRKKSKTANYLISIDPVDLSREGESYVGKLRSNLMGTKFTVYDRGICPMKGRGLVGAAHTRQELAAISYETNVLGFKGPRKMSVIIPGMTLNHKQIPYQPQNNHDSLLSRWQNRTMENLVELHNKAPVWNSDTQSYVLNFRGRVTQASVKNFQIVHKNDPDYIVMQFGRVADDVFTLDYNYPLCAVQAFGIGLSSFDSKLACE

Variants of: B1
Settings: with atg5_human ATG5, Q9H1Y0
Chain of atg5_human ATG5, Q9H1Y0 (Q9H1Y0 whole entry): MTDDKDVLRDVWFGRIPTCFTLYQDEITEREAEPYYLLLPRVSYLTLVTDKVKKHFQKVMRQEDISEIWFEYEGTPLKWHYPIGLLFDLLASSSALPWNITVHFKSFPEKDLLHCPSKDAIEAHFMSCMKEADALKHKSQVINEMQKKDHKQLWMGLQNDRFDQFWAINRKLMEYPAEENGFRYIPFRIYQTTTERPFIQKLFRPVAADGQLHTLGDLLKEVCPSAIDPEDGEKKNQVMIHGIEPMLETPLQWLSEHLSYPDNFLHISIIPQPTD

Variant | effect of a mutation on the interaction
I404T | disrupting interaction strength
R255C | with no effect

Variants of: B1
Settings: with trip6_human TRIP6, Q15654
Chain of trip6_human TRIP6, Q15654 (Q15654 whole entry): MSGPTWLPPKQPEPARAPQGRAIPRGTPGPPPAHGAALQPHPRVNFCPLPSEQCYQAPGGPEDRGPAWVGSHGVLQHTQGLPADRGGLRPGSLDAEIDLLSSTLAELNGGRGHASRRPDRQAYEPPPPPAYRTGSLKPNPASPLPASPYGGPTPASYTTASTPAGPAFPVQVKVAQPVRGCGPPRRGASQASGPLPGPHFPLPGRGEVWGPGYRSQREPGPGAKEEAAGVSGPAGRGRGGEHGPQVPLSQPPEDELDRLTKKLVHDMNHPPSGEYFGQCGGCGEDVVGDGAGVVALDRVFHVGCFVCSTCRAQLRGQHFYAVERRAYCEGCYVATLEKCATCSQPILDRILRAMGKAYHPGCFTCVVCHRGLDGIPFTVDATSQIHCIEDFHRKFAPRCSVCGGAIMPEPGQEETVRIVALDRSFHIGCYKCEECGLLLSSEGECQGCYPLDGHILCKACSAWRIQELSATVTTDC

Variant | effect of a mutation on the interaction
R255C | with no effect

Variants of: B1
Settings: with maga4_human MAGEA4, P43358

Variant | effect of a mutation on the interaction
R255C | with no effect

Variants of: B2
Settings: with hsfy1_human HSFY1, Q96LI6

Variant | effect of a mutation on the interaction
D53N | with no effect

Variants of: B3
Settings: with vps52_human VPS52, Q8N1B4

Variant | effect of a mutation on the interaction
R207H | with no effect

Variants of: B4
Settings: with rhoj_human RHOJ

Variant | effect of a mutation on the interaction
V54M | with no effect
R103C | with no effect

More lines, now with the values ahead:

effect of a mutation on the interaction | Variant
disrupting interaction strength | L514R
with no effect | H215R

Variants of: B5
Settings: with maga6_human MAGEA6, P43360
Chain of maga6_human MAGEA6, P43360 (P43360 whole entry): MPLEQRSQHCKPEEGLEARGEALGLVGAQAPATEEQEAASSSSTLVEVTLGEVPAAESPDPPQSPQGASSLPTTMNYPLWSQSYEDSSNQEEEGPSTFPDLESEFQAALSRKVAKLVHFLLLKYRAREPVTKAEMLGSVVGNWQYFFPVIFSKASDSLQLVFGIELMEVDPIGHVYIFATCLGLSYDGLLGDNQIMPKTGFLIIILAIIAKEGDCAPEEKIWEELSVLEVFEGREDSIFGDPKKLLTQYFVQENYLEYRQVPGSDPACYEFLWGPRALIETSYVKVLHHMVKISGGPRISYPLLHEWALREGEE

Variant | effect of a mutation on the interaction
A296E | with no effect
